T1: human CD25 on KIT-225 cells (human, UniProt P01589 22-272)
T1 construct: whole, on cells; also called hCD25; IL-2Rα
T1 sequence (looked up): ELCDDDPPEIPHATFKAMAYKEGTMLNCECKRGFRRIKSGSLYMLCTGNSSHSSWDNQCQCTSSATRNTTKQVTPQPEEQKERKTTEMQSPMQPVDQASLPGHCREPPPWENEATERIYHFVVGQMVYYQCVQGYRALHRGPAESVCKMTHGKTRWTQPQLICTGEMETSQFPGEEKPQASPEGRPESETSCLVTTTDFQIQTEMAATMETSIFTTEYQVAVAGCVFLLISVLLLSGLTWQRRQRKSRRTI

T2: cynomolgus CD25 (cynomolgus, UniProt H6WS54 22-213)
T2 construct: Analyte in the SPR assay; also called CD25 (sIL-2 Receptor α)
T2 sequence: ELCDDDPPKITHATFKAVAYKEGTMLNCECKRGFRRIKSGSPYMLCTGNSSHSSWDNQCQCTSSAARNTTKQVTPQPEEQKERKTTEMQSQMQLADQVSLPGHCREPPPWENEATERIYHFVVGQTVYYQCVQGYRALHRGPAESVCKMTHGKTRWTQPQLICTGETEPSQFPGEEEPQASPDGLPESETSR


Experiments:
[1] = biological target: T1, human CD25 on KIT-225 cells; experiment: flow cytometry (FACS) on CD25-expressing KIT-225 cells, secondary antibody, MFI against antibody concentration
Method: KIT-225 cells were washed once with FACS buffer, counted, and resuspended at a concentration of 1×10⁶/mL in FACS buffer. To 5 mL (5×10⁶ total) of cells, 25 μL of viable dye (Thermo Fisher, L34974, equivalent to 1:200 dilution) was added and mixed well. After incubation at 4° C. for 30 minutes, cells were washed twice with FACS buffer (200×g, 5 minutes each). Cells were resuspended in 5 mL FACS buffer and 100 μL was added per well, followed by addition of 100 μL diluted antibody. The solution was mixed by pipetting up and down and then incubated at 4° C. for 60 minutes, after which cells were washed twice with FACS buffer (200×g, 5 minutes each). Cells were resuspended in 100 μL FACS buffer. Fifty μL of secondary antibody was diluted in 5 mL FACS buffer (equivalent to 1:100 dilution), and 100 μL was added to each well and mixed by pipetting up and down. Following incubation at 4° C. for 30 minutes, cells were washed twice with FACS buffer (200×g, 5 minutes each), and resuspended in approximately 250 μL FACS buffer. FACS analysis was performed with Attune Flow cytometer using tube reading module.

cynomolgus CD25 = biological target: T2, cynomolgus CD25; experiment: SPR, Biacore 8K, antibody captured on Protein A chip, cynomolgus CD25 as analyte, 25 C
Method: Running buffer was prepared by diluting one volume of 10× buffer with 9 volumes of degassed, filtered MilliQ water. Regeneration buffer (10 mM glycine) was prepared by dissolving glycine in MilliQ water and adjusting the pH to approximately 1.5-1.7. The assay was performed at 25° C. using HBS-EP+ as the running buffer. Antibodies were injected as capture on the Series S Sensor Chip Protein A. Antigens were diluted to multiple concentrations and injected over the surface of flow cell 1 and 2 as association phase, followed by injection of running buffer as dissociation phase.
All data were processed using the BIACORE™ 8K Evaluation software version 3.0. Flow cell 1 and blank injection of buffer in each cycle were used as double reference for Response Units (RU) subtraction. […] VH2+VL4 is a parental antibody (before affinity maturation).

EC50 (read off the curve) [1] [µg/mL] | Kd (cynomolgus CD25) [nM] | koff (cynomolgus CD25) [s⁻¹] | kon (cynomolgus CD25) [M⁻¹ s⁻¹] | Binder
~0.5 | 18.5 | 0.000714 | 38500 | antibody 14569 (antibody, human IgG4 S228P, kappa, V domains shown) VH: EVQLVESGGGLVQPGGSLRLSCAASGYWFSSWGMSWVRQAPGKGLELVSTINGYGDTTYYPDSVKGRFTISRDNSKNTLYLQMNSLRAEDTAVYYCARDRDYSNSYYYAHDYWGQGTLVTVSS VL: EIVLTQSPATLSLSPGERATLSCRASSYVSFMHWLQQKPGQAPRPWIYATMNLASGVPARFSGSGSGTDYTLTISSLEPEDFAVYYCQQWSSNPPAFGGGTKVEIKR
~0.6 | 17.4 | 0.000744 | 42600 | antibody 14564 (antibody, human IgG4 S228P, kappa, V domains shown) VH: EVQLVESGGGLVQPGGSLRLSCAASGFTFSSWGMSWVRQAPGKGLELVSTINGYGDTTYYPDSVKGRFTISRDNSKNTLYLQMNSLRAEDTAVYYCARDRDYSNSYYYAHDYWGQGTLVTVSS VL: EIVLTQSPATLSLSPGERATLSCRASSYVSFMHWLQQKPGQAPRPWIYATANLASGVPARFSGSGSGTDYTLTISSLEPEDFAVYYCQQWSSNPPAFGGGTKVEIKR
~0.4 | 19.6 | 0.000679 | 34700 | antibody 14572 (antibody, human IgG4 S228P, kappa, V domains shown) VH: EVQLVESGGGLVQPGGSLRLSCAASGYWFSSYGMSWVRQAPGKGLELVSTINGYGDTTYYPDSVKGRFTISRDNSKNTLYLQMNSLRAEDTAVYYCARDRDYTNSYYYAHDYWGQGTLVTVSS VL: EIVLTQSPATLSLSPGERATLSCRASSYVSFMHWLQQKPGQAPRPWIYATMNLASGVPARFSGSGSGTDYTLTISSLEPEDFAVYYCQQWSSNPPAFGGGTKVEIKR

From patent US20250387484A1 (US Dept. of Health and Human Services, published 2025)
